Experimental data from patent publication US20240010747A1, “ANTI-MRP4 (ENCODED BY ABCC4 GENE) ANTIBODIES AND USES THEREOF” (Kenjockety Biotechnology, Inc., priority 2020, published 2024).

T1: human ABCC4 (human, UniProt O15439 1-1325)
T1 construct: Expressed on murine C6 cells stably transfected with human ABCC4 cDNA with C-terminal FLAG tag; also called MRP4; Multidrug resistance protein 4; not shown: C-terminal fused FLAG tag
T1 sequence: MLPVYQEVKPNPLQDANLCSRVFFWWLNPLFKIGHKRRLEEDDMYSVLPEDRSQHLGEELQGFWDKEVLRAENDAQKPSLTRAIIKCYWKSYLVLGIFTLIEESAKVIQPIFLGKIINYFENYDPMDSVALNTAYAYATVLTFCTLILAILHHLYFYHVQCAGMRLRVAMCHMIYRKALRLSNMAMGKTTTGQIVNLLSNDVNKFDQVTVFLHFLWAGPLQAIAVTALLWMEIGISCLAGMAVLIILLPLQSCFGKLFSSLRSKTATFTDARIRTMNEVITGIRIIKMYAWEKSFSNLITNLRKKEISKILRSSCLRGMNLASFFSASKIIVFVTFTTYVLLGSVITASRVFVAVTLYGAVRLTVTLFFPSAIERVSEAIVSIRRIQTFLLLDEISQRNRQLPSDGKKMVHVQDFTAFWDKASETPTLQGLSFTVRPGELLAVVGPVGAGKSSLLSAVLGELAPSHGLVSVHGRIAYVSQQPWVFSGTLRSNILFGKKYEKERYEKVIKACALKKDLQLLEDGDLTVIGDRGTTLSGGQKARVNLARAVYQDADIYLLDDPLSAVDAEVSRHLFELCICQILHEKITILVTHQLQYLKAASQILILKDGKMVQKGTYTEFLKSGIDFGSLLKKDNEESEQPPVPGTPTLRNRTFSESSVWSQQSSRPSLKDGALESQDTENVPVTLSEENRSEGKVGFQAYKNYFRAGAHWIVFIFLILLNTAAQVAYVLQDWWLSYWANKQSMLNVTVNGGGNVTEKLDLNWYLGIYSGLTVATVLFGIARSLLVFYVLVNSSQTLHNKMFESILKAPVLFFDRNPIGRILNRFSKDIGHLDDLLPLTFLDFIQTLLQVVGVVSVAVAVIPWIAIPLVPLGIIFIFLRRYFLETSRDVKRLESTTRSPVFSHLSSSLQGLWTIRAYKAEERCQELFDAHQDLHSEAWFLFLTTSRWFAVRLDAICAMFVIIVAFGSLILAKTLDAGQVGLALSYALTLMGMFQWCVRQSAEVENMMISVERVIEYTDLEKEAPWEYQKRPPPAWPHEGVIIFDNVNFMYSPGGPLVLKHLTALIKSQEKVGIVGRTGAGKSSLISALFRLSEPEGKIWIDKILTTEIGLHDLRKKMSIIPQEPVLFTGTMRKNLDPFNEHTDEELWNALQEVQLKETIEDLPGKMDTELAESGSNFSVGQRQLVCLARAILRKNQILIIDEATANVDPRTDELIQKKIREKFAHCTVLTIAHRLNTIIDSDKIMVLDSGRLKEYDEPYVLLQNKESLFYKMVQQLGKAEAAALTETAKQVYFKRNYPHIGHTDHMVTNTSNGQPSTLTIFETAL

T2: human ABCC4 (Homo sapiens, UniProt O15439)
T2 construct: expressed in transfected cells
T2 sequence (O15439 1-1325): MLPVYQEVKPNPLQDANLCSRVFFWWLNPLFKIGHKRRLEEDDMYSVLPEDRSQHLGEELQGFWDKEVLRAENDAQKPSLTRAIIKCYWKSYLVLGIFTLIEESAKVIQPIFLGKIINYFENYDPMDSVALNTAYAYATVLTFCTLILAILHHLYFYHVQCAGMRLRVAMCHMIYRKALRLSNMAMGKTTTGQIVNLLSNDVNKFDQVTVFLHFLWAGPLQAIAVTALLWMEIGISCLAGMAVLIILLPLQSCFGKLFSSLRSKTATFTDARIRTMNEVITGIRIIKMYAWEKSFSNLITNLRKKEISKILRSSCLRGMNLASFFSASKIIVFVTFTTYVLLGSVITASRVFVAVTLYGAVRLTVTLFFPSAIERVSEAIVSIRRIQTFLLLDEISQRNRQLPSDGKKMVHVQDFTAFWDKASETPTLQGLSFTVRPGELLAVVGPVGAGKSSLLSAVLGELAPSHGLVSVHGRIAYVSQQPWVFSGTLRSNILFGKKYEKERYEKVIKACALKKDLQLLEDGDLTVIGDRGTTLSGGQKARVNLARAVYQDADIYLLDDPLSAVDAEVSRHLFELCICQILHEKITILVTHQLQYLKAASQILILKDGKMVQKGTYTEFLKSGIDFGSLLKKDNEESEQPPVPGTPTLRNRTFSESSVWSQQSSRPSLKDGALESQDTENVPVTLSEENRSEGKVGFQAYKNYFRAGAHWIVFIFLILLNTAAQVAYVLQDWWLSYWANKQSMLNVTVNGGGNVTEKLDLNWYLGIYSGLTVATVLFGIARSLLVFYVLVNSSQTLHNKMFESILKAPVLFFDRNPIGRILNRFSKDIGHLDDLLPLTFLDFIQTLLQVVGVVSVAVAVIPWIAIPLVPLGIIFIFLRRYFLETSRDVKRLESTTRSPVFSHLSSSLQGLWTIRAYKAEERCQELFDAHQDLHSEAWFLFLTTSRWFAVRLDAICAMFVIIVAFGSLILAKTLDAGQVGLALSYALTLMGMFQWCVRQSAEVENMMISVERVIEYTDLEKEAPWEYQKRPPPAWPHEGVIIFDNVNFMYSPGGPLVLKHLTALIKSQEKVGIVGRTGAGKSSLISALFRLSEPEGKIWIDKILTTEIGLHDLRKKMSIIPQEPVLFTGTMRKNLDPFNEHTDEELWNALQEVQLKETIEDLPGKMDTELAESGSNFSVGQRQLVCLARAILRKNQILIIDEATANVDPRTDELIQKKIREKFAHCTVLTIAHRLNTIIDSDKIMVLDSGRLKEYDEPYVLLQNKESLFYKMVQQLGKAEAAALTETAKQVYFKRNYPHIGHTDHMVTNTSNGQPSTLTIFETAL


Legend:
human ABCC4 [1] = biological target: T1, human ABCC4; test: FACS, C6 cells stably expressing human ABCC4; + = MFI>3x background
Protocol: (§1) Antibody binding to cells was evaluated by flow cytometry. Murine C6 cells stably transfected to express human or cynomolgus ABCC4 were washed once in flow cytometry buffer (PBS+2% FBS+0.02% sodium azide), resuspended at 2×10\hat{ }6 cells/mL in flow cytometry buffer, and dispensed into 96-well microtiter plates at 0.1 mL/well. Recombinant antibodies were added to cells at 5 ug/mL for initial binding confirmation, or serially diluted from 100 ug/mL in flow cytometry buffer. After incubating cells on ice for 30 min, cells were washed twice with flow cytometry buffer. Bound antibody was detected with PE-labeled F(ab′)₂ fragment goat anti-human IgG (Jackson ImmunoResearch) and evaluated on an Attune N×T flow cytometer. EC50 is calculated to be the concentration of antibody that gives half maximal response.

human ABCC4 [2] = biological target: T2, human ABCC4; test: Flow cytometry (FACS) binding to C6 cells stably transfected to express human ABCC4 (different experiment, Table 4); details: for Human ABCC4 binding: C6 cells stably transfected to express human ABCC4, FACS, different experiment, Table 4; for binding to human ABCC4 expressed on cell surface: Table 4 study, stated in words
How it was run: (§2)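 Murine C6 cells stably expressing FLAG-tagged human or cynomolgus ABCC4 incubated 30 min on ice with antibodies, either 5 ug/mL or serially diluted from 100 ug/mL, in PBS+2% FBS+0.02% azide. Detection with PE anti-human IgG F(ab′)2 by flow cytometry; EC50 at half-maximal MFI; negative below background, positive >3× background.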

cynomolgus ABCC4 [3] = test: Flow cytometry (FACS) binding to C6 cells stably transfected to express cynomolgus ABCC4 (different experiment, different C6.cC4 cell line, Table 4); parameters: key to Cynomolgus ABCC4 binding: Negative (−)=Rmax (MFI) below background level; Positive (+)=MFI>3× background level; details: for binding to cynomolgus ABCC4 expressed on cell surface: Table 4 study, stated in words; for Cynomolgus ABCC4 binding: different C6.cC4 cell line, C6 cells stably transfected to express cynomolgus ABCC4, FACS, Table 4
How it was run: as §2

cynomolgus ABCC4 [4] = test: Flow cytometry (FACS) binding to C6 cells stably transfected to express cynomolgus ABCC4 (Table 3 study); parameters: key to Cynomolgus ABCC4 binding: Negative (−) is defined as maximum response (Rmax(MFI)) below background level; Positive (+) is defined as MFI>1000; details: C6 cells stably transfected to express cynomolgus ABCC4, FACS; Table 3
Protocol: (§3) Binding titration of recombinant antibodies to ABCC4 transfectants was performed by serial dilution of antibodies from about 666 nM. Diluted antibody in flow cytometry buffer was incubated with cells on ice for 30 min. After 2 washes with flow cytometry buffer, bound antibody was detected with PE-labeled F(ab′)2 fragment goat anti-human IgG (Jackson ImmunoResearch) diluted 1:200 in flow cytometry buffer and incubated with cells for 20 min on ice. After 2 washes with flow cytometry buffer fluorescence was measured on an Attune N×T flow cytometer. Data were analyzed with GraphPad Prism 8.0 software to determine EC50's.
(§4) Human embryonic kidney HEK 293T cells and murine C6 (ATCC CCL-107) were transfected with human or cynomolgus ABCC4 cDNA with C-terminal fused FLAG tag in a pMONO-hygro vector with Lipofectamine 3000 (Invitrogen #L3000001). The cells were treated with 0.2 mg/ml and 0.5 mg/ml hygromycin respectively for about 2 weeks while cultivated in DMEM and 10% FBS with 0.2 mg/ml hygromycin and 0.5 mg/ml hygromycin, respectively. The cells were washed with PBS, and stained with […] of anti-FLAG-PE after fixing and permeablization. Clones expressing ABCC4 were single-cell sorted into 200 μl DMEM with 10% FBS using a BD Aria FACS machine and cultivated in 96 well plates using standard techniques in an incubator at 37° C. and 5% CO 2. Two weeks later clones expressing high levels of ABCC4 were screened and amplified.
as §1, with “2×10^6” for “2×10\hat{ }6”, “F(ab′)2” for “F(ab′)₂”
(§5) Table 3 lists the following characteristics of the rat anti-ABCC4 antibodies tested: binding to C6 cells stably transfected to express human ABCC4 measured by FACS and binding to C6 cells stably transfected to express cynomolgus ABCC4 measured by FACS. Negative (−) is defined as maximum response (Rmax(MFI)) below background level. Positive (+) is defined as MFI>1000.

human ABCC4 [5] = biological target: T2, human ABCC4; test: Flow cytometry (FACS) binding to C6 cells stably transfected to express human ABCC4 (Table 3 study); details: C6 cells stably transfected to express human ABCC4, FACS; Table 3
Protocol: as §3, §4
as §1, with “2×10^6” for “2×10\hat{ }6”, “F(ab′)2” for “F(ab′)₂”
as §5

Row | Molecule | binding result (human ABCC4 [1]) | Human ABCC4 binding (human ABCC4 [2]) | binding to human ABCC4 expressed on cell surface (human ABCC4 [2]) | binding to cynomolgus ABCC4 expressed on cell surface (cynomolgus ABCC4 [3]) | Cynomolgus ABCC4 binding (cynomolgus ABCC4 [3]) | Cynomolgus ABCC4 binding (cynomolgus ABCC4 [4]) | Human ABCC4 binding (human ABCC4 [5])
1 | C4.1054 (antibody, V domains shown) VH: QVQLLQSGAALVKPGASVKMSCKPSGYTFTDYWVSWVKQSHGKSLEWIGEIYPNNGATNFNEKFKGKATLTVDKSTSTAYMELSRLTSEDSAIYYCPSRKYGYNWNFDYWGQGTMVTVSS VL: DIVLTQSPALAVSLGQRATISCRARQSVSISRYNLMHWYQQKPGQQPKVLIYRASNLASGIPARFSGSGSGTDFTLTIDPVQADDIATYYCQQSRDSPWTFGGGTKLELK | binds | + (Positive (+)=MFI>3× background level) | bind to both human and cynomolgus ABCC4 | bind to both human and cynomolgus ABCC4 | + (Positive (+)=MFI>3× background level) |  | 
2 | C4.1131 (antibody, V domains shown) VH: EVKLVESDGGLVQPRKSLKLSCAASGFTFTDYYMAWVRQGPTMGLEWVATISNDGSTKYYRDSVKGRFTLSRDNAKTTLHLQMDSLRSEDTATYYCARLTIRYKGVMDAWGQGASVTVSS VL: DVVMTQSPSHLAASPGESVSINCKASKNIYKYLAWYQQKPGKTNKLLIYSGSTLQSGTPSRFSGSGSGSDFTLTIRNLEPEDFGLYYCQHHNEYPPTFGGGTKLEIK | binds | + (Positive (+)=MFI>3× background level) | bind to both human and cynomolgus ABCC4 | bind to both human and cynomolgus ABCC4 | + (Positive (+)=MFI>3× background level) |  | 
3 | C4.1134 (antibody, V domains shown) VH: EVQLVESDGGLVQPGRSLKLSCAASGFTFSDFYMAWVRQAPTKGLEWIATISHDGRNTFYRDSVKGRFTISRDNAKRALYLQMDSLRSEDTATYYCASLTTRYKGVMEAWGQGASVTVSS VL: DVVMTQSPSHLAASPGESVSINCKASKNIYKYLAWYQQKPGKTNKLLIYSGSTLQSGTPSRFSGSGSGSDFTLTIRNLEPEDFGLYYCQHHNEYPPTFGGGTKLEIK | binds | + (Positive (+)=MFI>3× background level) | bind to both human and cynomolgus ABCC4 | bind to both human and cynomolgus ABCC4 | + (Positive (+)=MFI>3× background level) |  | 
4 | C4.1152 (antibody, V domains shown) VH: EVKLVESDGGLVQPGRSLKLSCAASGFTFSDFYMAWVRQAPTKGLEWIASISHDGRNTYYRDSVKGRFTISRDNAKRTLYLQMDSLRSEDTATYYCASLTARYKGVMGAWGQGTLVTVSS VL: DVVMTQSPSHLAASPGESVSINCKASKNIYKYLAWYQQKPGKTNKLLIYSGSTLQSGTPSRFSGSGSGSDFTLTIRNLEPEDFGLYYCQHHNEYPPTFGGGTKLEIK | binds | + (Positive (+)=MFI>3× background level) | bind to both human and cynomolgus ABCC4 | bind to both human and cynomolgus ABCC4 | + (Positive (+)=MFI>3× background level) |  | 
5 | C4.925: anti-ABCC4 antibody raised in rats; VH SEQ ID NO: 3, VL SEQ ID NO: 126 (antibody, V domains shown) VH: EVQLVESGGGLVQPGRSLKLSCAASGFTFSDYYMAWVRQAPTKGLEWVAYINYDGGSTHYGDSVKGRFTISRDNEKSTLYLQMNSLRSEDMATYYCARENYGYNSFDYWGQGASVTVSS VL: DIQVTQSPASLSASLGETISIECLTSEDISSYLTWYQQKPGKSPHLLIYGANSLQAGVPSRFSGSGSGTQYSLKISSMQPEDEGDYFCQQSYKFPLTFGSGTKLELK |  | + (Positive (+)=MFI>3× background level) |  |  | − | − | + (Positive (+) is defined as MFI>1000)
